Where two headings read alike, the source gives them in different places.
Key:
[1] = biological target: fluorescent peptide derived from residues 18-58 of lysozyme; assay: fluorescence polarisation
[2] = biological target: fluorescent peptide derived from residues 18-58 of lysozyme; assay: fluorescence polarisation; remark: listed apart in the source

Row | Binder | Kd [1] [µM] | Kd [2] [µM]
1 | DegP S210A (proteolytically inactive variant missing the catalytic serine) (enzyme, donor or acceptor dye on the trimers in the FRET assay only (site not given)) AETSSATTAQQMPSLAPMLEKVMPSVVSINVEGSTTVNTPRMPRNFQQFFGDDSPFCQEGSPFQSSPFCQGGQGGNGGGQQQKFMALGSGVIIDADKGYVVTNNHVVDNATVIKVQLSDGRKFDAKMVGKDPRSDIALIQIQNPKNLTAIKMADSDALRVGDYTVAIGNPFGLGETVTSGIVSALGRSGLNAENYENFIQTDAAINRGNAGGALVNLNGELIGINTAILAPDGGNIGIGFAIPSNMVKNLTSQMVEYGQVKRGELGIMGTELNSELAKAMKVDAQRGAFVSQVLPNSSAAKAGIKAGDVITSLNGKPISSFAALRAQVGTMPVGSKLTLGLLRDGKQVNVNLELQQSSQNQVDSSSIFNGIEGAEMSNKGKDQGVVVNNVKTGTPAAQIGLKKGDVIIGANQQAVKNIAELRKVLDSKPSVLALNIQRGDSTIYLLMQ | 1 | 
2 | DegP S210A/R187A (enzyme, donor or acceptor dye on the trimers in the FRET assay only (site not given)) AETSSATTAQQMPSLAPMLEKVMPSVVSINVEGSTTVNTPRMPRNFQQFFGDDSPFCQEGSPFQSSPFCQGGQGGNGGGQQQKFMALGSGVIIDADKGYVVTNNHVVDNATVIKVQLSDGRKFDAKMVGKDPRSDIALIQIQNPKNLTAIKMADSDALRVGDYTVAIGNPFGLGETVTSGIVSALGASGLNAENYENFIQTDAAINRGNAGGALVNLNGELIGINTAILAPDGGNIGIGFAIPSNMVKNLTSQMVEYGQVKRGELGIMGTELNSELAKAMKVDAQRGAFVSQVLPNSSAAKAGIKAGDVITSLNGKPISSFAALRAQVGTMPVGSKLTLGLLRDGKQVNVNLELQQSSQNQVDSSSIFNGIEGAEMSNKGKDQGVVVNNVKTGTPAAQIGLKKGDVIIGANQQAVKNIAELRKVLDSKPSVLALNIQRGDSTIYLLMQ | 30 | 30
3 | DegP S210A/Q200A (enzyme, donor or acceptor dye on the trimers in the FRET assay only (site not given)) AETSSATTAQQMPSLAPMLEKVMPSVVSINVEGSTTVNTPRMPRNFQQFFGDDSPFCQEGSPFQSSPFCQGGQGGNGGGQQQKFMALGSGVIIDADKGYVVTNNHVVDNATVIKVQLSDGRKFDAKMVGKDPRSDIALIQIQNPKNLTAIKMADSDALRVGDYTVAIGNPFGLGETVTSGIVSALGRSGLNAENYENFIATDAAINRGNAGGALVNLNGELIGINTAILAPDGGNIGIGFAIPSNMVKNLTSQMVEYGQVKRGELGIMGTELNSELAKAMKVDAQRGAFVSQVLPNSSAAKAGIKAGDVITSLNGKPISSFAALRAQVGTMPVGSKLTLGLLRDGKQVNVNLELQQSSQNQVDSSSIFNGIEGAEMSNKGKDQGVVVNNVKTGTPAAQIGLKKGDVIIGANQQAVKNIAELRKVLDSKPSVLALNIQRGDSTIYLLMQ | 30 | 30
4 | DegP S210A/T176V (enzyme, donor or acceptor dye on the trimers in the FRET assay only (site not given)) AETSSATTAQQMPSLAPMLEKVMPSVVSINVEGSTTVNTPRMPRNFQQFFGDDSPFCQEGSPFQSSPFCQGGQGGNGGGQQQKFMALGSGVIIDADKGYVVTNNHVVDNATVIKVQLSDGRKFDAKMVGKDPRSDIALIQIQNPKNLTAIKMADSDALRVGDYTVAIGNPFGLGEVVTSGIVSALGRSGLNAENYENFIQTDAAINRGNAGGALVNLNGELIGINTAILAPDGGNIGIGFAIPSNMVKNLTSQMVEYGQVKRGELGIMGTELNSELAKAMKVDAQRGAFVSQVLPNSSAAKAGIKAGDVITSLNGKPISSFAALRAQVGTMPVGSKLTLGLLRDGKQVNVNLELQQSSQNQVDSSSIFNGIEGAEMSNKGKDQGVVVNNVKTGTPAAQIGLKKGDVIIGANQQAVKNIAELRKVLDSKPSVLALNIQRGDSTIYLLMQ | 30 | 30
